Four proteins from ChEMBL document CHEMBL1212772 can be followed below.

Substrate in data set [1]: O=C(Cc1cccs1)N[C@@H]1C(=O)N2C(C(=O)[O-])=C(C[n+]3ccccc3)CS[C@H]12
The data set can be described thus: (§1) Activity of Pseudomonas aeruginosa IMP-1.

Substrate in data set [2]: C[C@@H](O)[C@H]1C(=O)N2C(C(=O)O)=C(SCCNC=N)C[C@H]12
Described as §1.

Substrate in data set [3]: CC1(C)S[C@@H]2[C@H](NC(=O)Cc3ccccc3)C(=O)N2[C@H]1C(=O)O
The data set is described as §1.

Substrate in data set [4]: C[C@@H](O)[C@H]1C(=O)N2C(C(=O)O)=C(S[C@@H]3CN[C@H](CNS(N)(=O)=O)C3)[C@H](C)[C@H]12
The data set is described as §1.

Substrate in data set [5]: CC(C)(O/N=C(\C(=O)N[C@@H]1C(=O)N2C(C(=O)[O-])=C(C[n+]3ccccc3)CS[C@H]12)c1csc(N)n1)C(=O)O
The description is as §1.

Substrate in data set [6]: C[C@@H](O)[C@H]1C(=O)N2C(C(=O)O)=C(S[C@@H]3CN[C@H](C(=O)N(C)C)C3)[C@H](C)[C@H]12
The description is as §1.

Substrate in data set [7]: O=C(Cc1cccs1)N[C@@H]1C(=O)N2C(C(=O)[O-])=C(C[n+]3ccccc3)CS[C@H]12
The data set can be described thus: (§2) Kcat/Km ratio of Pseudomonas aeruginosa IMP-1.

Substrate in data set [8]: C[C@@H](O)[C@H]1C(=O)N2C(C(=O)O)=C(SCCNC=N)C[C@H]12
The data set is described as §2.

Substrate in data set [9]: CC1(C)S[C@@H]2[C@H](NC(=O)Cc3ccccc3)C(=O)N2[C@H]1C(=O)O
The description is as §2.

Substrate in data set [10]: C[C@@H](O)[C@H]1C(=O)N2C(C(=O)O)=C(S[C@@H]3CN[C@H](CNS(N)(=O)=O)C3)[C@H](C)[C@H]12
The data set is described as §2.

Substrate in data set [11]: CC(C)(O/N=C(\C(=O)N[C@@H]1C(=O)N2C(C(=O)[O-])=C(C[n+]3ccccc3)CS[C@H]12)c1csc(N)n1)C(=O)O
The description is as §2.

Substrate in data set [12]: C[C@@H](O)[C@H]1C(=O)N2C(C(=O)O)=C(S[C@@H]3CN[C@H](C(=O)N(C)C)C3)[C@H](C)[C@H]12
The description is as §2.

Substrate in data set [13]: C[C@@H](O)[C@H]1C(=O)N2C(C(=O)O)=C(SCCNC=N)C[C@H]12
The data set can be described thus: (§3) Activity of Serratia marcescens SME-3.

Substrate in data set [14]: C[C@@H](O)[C@H]1C(=O)N2C(C(=O)O)=C(S[C@@H]3CN[C@H](CNS(N)(=O)=O)C3)[C@H](C)[C@H]12
The description is as §3.

Substrate in data set [15]: C[C@@H](O)[C@H]1C(=O)N2C(C(=O)O)=C(S[C@@H]3CN[C@H](C(=O)N(C)C)C3)[C@H](C)[C@H]12
The description is as §3.

Substrate in data set [16]: C[C@@H](O)[C@H]1C(=O)N2C(C(=O)O)=C(SCCNC=N)C[C@H]12
The data set can be described thus: (§4) Kcat/Km ratio of Serratia marcescens SME-3.

Substrate in data set [17]: C[C@@H](O)[C@H]1C(=O)N2C(C(=O)O)=C(S[C@@H]3CN[C@H](CNS(N)(=O)=O)C3)[C@H](C)[C@H]12
The description is as §4.

Substrate in data set [18]: C[C@@H](O)[C@H]1C(=O)N2C(C(=O)O)=C(S[C@@H]3CN[C@H](C(=O)N(C)C)C3)[C@H](C)[C@H]12
The description is as §4.

Substrate in data set [19]: O=C(Cc1cccs1)N[C@@H]1C(=O)N2C(C(=O)[O-])=C(C[n+]3ccccc3)CS[C@H]12
The data set can be described thus: (§5) Kcat/Km ratio of Klebsiella pneumoniae KPC-2.

Substrate in data set [20]: C[C@@H](O)[C@H]1C(=O)N2C(C(=O)O)=C(SCCNC=N)C[C@H]12
The data set is described as §5.

Substrate in data set [21]: CC1(C)S[C@@H]2[C@H](NC(=O)Cc3ccccc3)C(=O)N2[C@H]1C(=O)O
The description is as §5.

Substrate in data set [22]: C[C@@H](O)[C@H]1C(=O)N2C(C(=O)O)=C(S[C@@H]3CN[C@H](CNS(N)(=O)=O)C3)[C@H](C)[C@H]12
The data set is described as §5.

Substrate in data set [23]: CC(C)(O/N=C(\C(=O)N[C@@H]1C(=O)N2C(C(=O)[O-])=C(C[n+]3ccccc3)CS[C@H]12)c1csc(N)n1)C(=O)O
Described as §5.

Substrate in data set [24]: C[C@@H](O)[C@H]1C(=O)N2C(C(=O)O)=C(S[C@@H]3CN[C@H](C(=O)N(C)C)C3)[C@H](C)[C@H]12
Described as §5.

Substrate in data set [25]: O=C(Cc1cccs1)N[C@@H]1C(=O)N2C(C(=O)[O-])=C(C[n+]3ccccc3)CS[C@H]12
Kind of data set: (§6) Activity of Klebsiella pneumoniae KPC-2.

Substrate in data set [26]: C[C@@H](O)[C@H]1C(=O)N2C(C(=O)O)=C(SCCNC=N)C[C@H]12
The data set is described as §6.

Substrate in data set [27]: CC1(C)S[C@@H]2[C@H](NC(=O)Cc3ccccc3)C(=O)N2[C@H]1C(=O)O
The description is as §6.

Substrate in data set [28]: C[C@@H](O)[C@H]1C(=O)N2C(C(=O)O)=C(S[C@@H]3CN[C@H](CNS(N)(=O)=O)C3)[C@H](C)[C@H]12
Described as §6.

Substrate in data set [29]: CC(C)(O/N=C(\C(=O)N[C@@H]1C(=O)N2C(C(=O)[O-])=C(C[n+]3ccccc3)CS[C@H]12)c1csc(N)n1)C(=O)O
The data set is described as §6.

Substrate in data set [30]: C[C@@H](O)[C@H]1C(=O)N2C(C(=O)O)=C(S[C@@H]3CN[C@H](C(=O)N(C)C)C3)[C@H](C)[C@H]12
Described as §6.

Substrate in data set [31]: O=C(Cc1cccs1)N[C@@H]1C(=O)N2C(C(=O)[O-])=C(C[n+]3ccccc3)CS[C@H]12
Kind of data set: (§7) Kcat/Km ratio of Klebsiella pneumoniae SHV-1.

Substrate in data set [32]: C[C@@H](O)[C@H]1C(=O)N2C(C(=O)O)=C(SCCNC=N)C[C@H]12
The description is as §7.

Substrate in data set [33]: CC1(C)S[C@@H]2[C@H](NC(=O)Cc3ccccc3)C(=O)N2[C@H]1C(=O)O
The data set is described as §7.

Substrate in data set [34]: C[C@@H](O)[C@H]1C(=O)N2C(C(=O)O)=C(S[C@@H]3CN[C@H](CNS(N)(=O)=O)C3)[C@H](C)[C@H]12
The description is as §7.

Substrate in data set [35]: C[C@@H](O)[C@H]1C(=O)N2C(C(=O)O)=C(S[C@@H]3CN[C@H](C(=O)N(C)C)C3)[C@H](C)[C@H]12
The description is as §7.

Substrate in data set [36]: O=C(Cc1cccs1)N[C@@H]1C(=O)N2C(C(=O)[O-])=C(C[n+]3ccccc3)CS[C@H]12
The data set can be described thus: (§8) Activity of Klebsiella pneumoniae SHV-1.

Substrate in data set [37]: C[C@@H](O)[C@H]1C(=O)N2C(C(=O)O)=C(SCCNC=N)C[C@H]12
The description is as §8.

Substrate in data set [38]: CC1(C)S[C@@H]2[C@H](NC(=O)Cc3ccccc3)C(=O)N2[C@H]1C(=O)O
The data set is described as §8.

Substrate in data set [39]: C[C@@H](O)[C@H]1C(=O)N2C(C(=O)O)=C(S[C@@H]3CN[C@H](CNS(N)(=O)=O)C3)[C@H](C)[C@H]12
The data set is described as §8.

Substrate in data set [40]: C[C@@H](O)[C@H]1C(=O)N2C(C(=O)O)=C(S[C@@H]3CN[C@H](C(=O)N(C)C)C3)[C@H](C)[C@H]12
Described as §8.

B1: Beta-lactamase IMP-1 (Pseudomonas aeruginosa), Q8G9Q0 (protein)
chain: MNSPKSRALLGFMGAFCLLLVAGAPLSAKSSDHVDLPYNLTATKIDSDVFVVTDRDFYSSNVLVAKMLDGTVVIVSSPFENLGTQTLMDWVAKTMKPKKVVAINTHFHLDGTGGNEIYKKMGAETWSSDLTKQLRLEENKKDRIKAAEFYKNEDLKRRILSSHPVPADNVFDLKQGKVFSFSNELVEVSFPGPAHSPDNVVVYFPKKKLLFGGCMIKPKELGYLGDANVKAWPDSARRLKKFDAKIVIPGHGEWGGPEMVNKTIKVAEKAVGEMRL
For B1, the Km (commonly the substrate concentration at which the rate is half of its maximum) in data set [1] worked out at 21 µM; in [2], 33 µM; in data set [3], 550 µM; in data set [4], 30 µM; in [5], 50 µM; in data set [6] it was 6.5 µM. Also, the kcat (usually the maximal rate divided by the concentration of active sites) in data set [1] came out at 270 s⁻¹; in data set [2], 190 s⁻¹; in [3], 1400 s⁻¹; in [4], 110 s⁻¹; in data set [5], 37 s⁻¹; in [6] it was 26 s⁻¹. In addition, the kcat/Km (in general, the turnover number divided by the Michaelis constant) in [7] is 1.3e+07 M⁻¹ s⁻¹; in data set [8], 5.8e+06 M⁻¹ s⁻¹; in data set [9], 2.5e+06 M⁻¹ s⁻¹; in data set [10] it was 3.7e+06 M⁻¹ s⁻¹; in [11], 740000 M⁻¹ s⁻¹; in data set [12] it was 4e+06 M⁻¹ s⁻¹.

B2: Carbapenem-hydrolyzing beta-lactamase SME-3 (Serratia marcescens), Q6PRG8 (protein)
chain: MSNKVNFKTASFLFSVCLALSAFNAHANKSDAAAKQIKKLEEDFDGRIGVFAIDTGSGNTFGYRSDERFPLCSSFKGFLAAAVLERVQQKKLDINQKVKYESRDLEYYSPITTKYKGSGMTLGDMASAALQYSDNGATNIIMERFLGGPEGMTKFMRSIGDNEFRLDRWELELNTAIPGDKRDTSTPKAVANSLNKLALGNVLNAKVKAIYQNWLKGNTTGDARIRASVPADWVVGDKTGSCGAYGTANDYAVIWPKNRAPLIVSIYTTRKSKDDKHSDKTIAEASRIAIQAID
For B2, the Km in data set [13] came out at 150 µM; in data set [14] it was 8.2 µM; in data set [15], 5.8 µM. Further, the kcat in data set [13] is 370 s⁻¹; in data set [14], 2.5 s⁻¹; in data set [15], 3.2 s⁻¹. Also, the kcat/Km was found to be 2.5e+06 M⁻¹ s⁻¹ in [16], 300000 M⁻¹ s⁻¹ in data set [17] and 550000 M⁻¹ s⁻¹ in data set [18].

B3: Carbapenem-hydrolyzing beta-lactamase KPC (Klebsiella pneumoniae), Q9F663 (protein)
chain: MSLYRRLVLLSCLSWPLAGFSATALTNLVAEPFAKLEQDFGGSIGVYAMDTGSGATVSYRAEERFPLCSSFKGFLAAAVLARSQQQAGLLDTPIRYGKNALVPWSPISEKYLTTGMTVAELSAAAVQYSDNAAANLLLKELGGPAGLTAFMRSIGDTTFRLDRWELELNSAIPGDARDTSSPRAVTESLQKLTLGSALAAPQRQQFVDWLKGNTTGNHRIRAAVPADWAVGDKTGTCGVYGTANDYAVVWPTGRAPIVLAVYTRAPNKDDKHSEAVIAAAARLALEGLGVNGQ
Regarding B3, the kcat/Km was found to be 760000 M⁻¹ s⁻¹ in data set [19]; 340000 M⁻¹ s⁻¹ in [20]; 2e+06 M⁻¹ s⁻¹ in data set [21]; 340000 M⁻¹ s⁻¹ in data set [22]; 1700 M⁻¹ s⁻¹ in data set [23]; 280000 M⁻¹ s⁻¹ in [24]. The Km was found to be 510 µM in data set [25]; 90 µM in [26]; 30 µM in [27]; 1.6 µM in [28]; 230 µM in data set [29]; 13 µM in [30]. The kcat in data set [25] was determined as 390 s⁻¹; in data set [26], 31 s⁻¹; in data set [27] it was 60 s⁻¹; in data set [28] it was 0.55 s⁻¹; in data set [29], 0.38 s⁻¹; in [30], 3.6 s⁻¹.

B4: Beta-lactamase SHV-1 (Klebsiella pneumoniae), P0AD64 (protein)
chain: MRYIRLCIISLLATLPLAVHASPQPLEQIKLSESQLSGRVGMIEMDLASGRTLTAWRADERFPMMSTFKVVLCGAVLARVDAGDEQLERKIHYRQQDLVDYSPVSEKHLADGMTVGELCAAAITMSDNSAANLLLATVGGPAGLTAFLRQIGDNVTRLDRWETELNEALPGDARDTTTPASMAATLRKLLTSQRLSARSQRQLLQWMVDDRVAGPLIRSVLPAGWFIADKTGAGERGARGIVALLGPNNKAERIVVIYLRDTPASMAERNQQIAGIGAALIEHWQR
Regarding B4, the kcat/Km stood at 2.6e+06 M⁻¹ s⁻¹ in data set [31]; 2400 M⁻¹ s⁻¹ in [32]; 6.9e+07 M⁻¹ s⁻¹ in [33]; 700 M⁻¹ s⁻¹ in data set [34]; 400 M⁻¹ s⁻¹ in [35]. In addition, the kcat in data set [36] stood at 410 s⁻¹; in [37], 0.054 s⁻¹; in data set [38] it was 1100 s⁻¹; in data set [39] it was 0.003 s⁻¹; in [40] it was 0.0017 s⁻¹. Further, the Km in [37] came out at 23 µM; in data set [39], 4.3 µM; in data set [40] it was 4.2 µM.
